Test results as given in patent US20160208233A1 (Harvard, published 2016).
Substitutions are numbered along the chain they refer to. In names and notes the source's numbering stands.

How the values were obtained:
Abz-LPESGK(Dnp)-CONH2 = molecular target: T1, Abz-LPESGK(Dnp)-CONH2
T1 chain: LPESGK

Abz-LPETGK(Dnp)-CONH2 = molecular target: T2, Abz-LPETGK(Dnp)-CONH2
T2 chain: LPETGK

Gly-Gly-Gly-COOH = molecular target: T3, Gly-Gly-Gly-COOH
T3 chain: GGG

Abz-LAETGK(Dnp)-CONH2 = molecular target: T4, Abz-LAETGK(Dnp)-CONH2
T4 chain: LAETGK

B1: eSrtA(4S-5) (protein)
chain: QAKPQIPKDKSKVAGYIEIPDADIKEPVYPGPATREQLDRGVSFVEENESLDDQNISITGHTAIDRPNYQFTNLRAAKKGSMVYFKVGNETRKYKMTSIRNVKPTAVEVLDEQKGKDKQLTLVTCDDYNEETGVWETRKIFVATEVK
Abz-LPESGK(Dnp)-CONH2
  Avg KM: 76 µM
  Avg kcat/KM: 5130
  Km, LxExG: 76 µM
  Specificity, LPESG over LPETG: 9.67 fold
  increase in kcat/Km, LPESG substrate against LPETG substrate: from ˜2-fold (4Sr5) to ˜5-fold (4Sr6a) increase in kcat/Km
  increased affinity for the LPESG substrate as compared to the LPETG substrate: from ˜2-fold (4Sr6b) to ˜8-fold (4Sr5)
  kcat/Km (Hz/M): 5130 Hz/M
  specificity (relative cat. Efficiency, fold), LPESG over LPETG: 10 fold
Abz-LPETGK(Dnp)-CONH2
  Avg KM: 11.7 µM
  Avg kcat/KM: 530
  Km, LxExG: 12.2 µM
  kcat/Km (Hz/M): 513 Hz/M
Gly-Gly-Gly-COOH
  Km,GGG (uM); with LPESG peptide: 26700 µM

B2: 4S.6B (protein)
chain: B1 chain with T59S, R75P, E130P
Abz-LPESGK(Dnp)-CONH2
  Km, LxExG: 312 µM
  increased affinity for the LPESG substrate as compared to the LPETG substrate: from ˜2-fold (4Sr6b) to ˜8-fold (4Sr5)
  kcat/Km (Hz/M): 4140 Hz/M
  specificity (relative cat. Efficiency, fold), LPESG over LPETG: 0.91 fold
Abz-LPETGK(Dnp)-CONH2
  Km, LxExG: 238 µM
  kcat/Km (Hz/M): 4550 Hz/M
Gly-Gly-Gly-COOH
  Km,GGG (uM); with LPESG peptide: 15700 µM

B3: eSrtA(4S-6) (protein)
chain: B1 chain with T59S, R75G, E130V
Abz-LPESGK(Dnp)-CONH2
  Avg KM: 125 µM
  Avg kcat/KM: 7530
  Km, LxExG: 102 µM
  Specificity, LPESG over LPETG: 8.09 fold
  increase in kcat/Km, LPESG substrate against LPETG substrate: from ˜2-fold (4Sr5) to ˜5-fold (4Sr6a) increase in kcat/Km
  kcat/Km (Hz/M): 9390 Hz/M
  specificity (relative cat. Efficiency, fold), LPESG over LPETG: 11 fold
Abz-LPETGK(Dnp)-CONH2
  Avg KM: 1040 µM
  Avg kcat/KM: 930
  Km, LxExG: 1290 µM
  kcat/Km (Hz/M): 854 Hz/M
Gly-Gly-Gly-COOH
  Avg KM (uM) for GGG; with LPESG (4S) peptide: 13100 µM
  Avg kcat/KM for GGG; with LPESG (4S) peptide: 153
  Km,GGG (uM); with LPESG peptide: 4950 µM

B4: eSrtA(4S-9) V182I (protein)
chain: B1 chain with S43C, F85L, V123I, E130F
Abz-LPESGK(Dnp)-CONH2
  activity and selectivity on LPESG and LPETG (kcat/Km): Reversion of V182 in eSrtA(4S-9) preserved selectivity but decreased overall activity

B5: eSrtA(4S-9) V104A (protein)
chain: B1 chain with S43C, V45A, F85L, E130F
Abz-LPESGK(Dnp)-CONH2
  lowering of specificity for LPESG over LPETG against eSrtA(4S-9): lowering specificity for LPESG (SEQ ID NO: 3) over LPETG (SEQ ID NO: 4) by 14-fold for the V104A mutant

B6: eSrtA(4S-9) T118A (protein)
chain: B1 chain with S43C, T59A, F85L, E130F
Abz-LPESGK(Dnp)-CONH2
  lowering of specificity for LPESG over LPETG against eSrtA(4S-9): by 75-fold for the T118A mutant

B7: 4S.6C (protein)
chain: B1 chain with E130F
Abz-LPESGK(Dnp)-CONH2
  Km, LxExG: 156 µM
  kcat/Km (Hz/M): 4350 Hz/M
  specificity (relative cat. Efficiency, fold), LPESG over LPETG: 18.5 fold
Abz-LPETGK(Dnp)-CONH2
  Km, LxExG: 16.1 µM
  kcat/Km (Hz/M): 235 Hz/M
Gly-Gly-Gly-COOH
  Km,GGG (uM); with LPESG peptide: 36000 µM

B8: eSrtA(2A-3) (protein)
chain: QAKPQIPKDKSKVAGYIEIPDADIREPVYPGPATREQLNRGVSFAEENESLDDQNISIAGHTSIGRPNYQFTNLRAAKKGSMVYFEVGNETRKYKMTSIRNVRPTAVEILDEQKGKDRQLTLFTCDDYNEETGVWETRKIFVATEVK
Abz-LAETGK(Dnp)-CONH2
  Avg KM: 1620 µM
  Avg kcat/KM: 881
Abz-LPETGK(Dnp)-CONH2
  Avg KM: 2100 µM
  Avg kcat/KM: 1270
  Specificity (relative catalytic efficiency, fold), LPETG over LAETG: 1.44 fold

B9: eSrtA(4S-3) (protein)
chain: B1 chain with D39S, V45T, A63S, D65G, K114E, K118E
Abz-LPESGK(Dnp)-CONH2
  Avg KM: 3330 µM
  Avg kcat/KM: 763
  Specificity, LPESG over LPETG: 245 fold
Abz-LPETGK(Dnp)-CONH2
  Avg KM: 3390 µM
  Avg kcat/KM: 3.12

B10: eSrtA(2A-9) H104A (protein)
chain: QAKPQIPKDKSKVAGYIEIPDADIKEPVYPGPATREQLNRGVCFADENESLDDQNISIAGHTFIDRPNYQFTNLKAAKPGSMVYFKVGNETRIYKMTSIRKVHPNAVEVLDEQEGKDKQLTLVTCDDYNEETGVWESRKIFVATEVK
Abz-LPETGK(Dnp)-CONH2
  preference for LPETG over LAETG (kcat/Km): resulting in a 60-fold preference for LPETG (SEQ ID NO: 4) over LAETG (SEQ ID NO: 5)

B11: eSrtA(2A-9) V182I (protein)
chain: B10 chain with A45H, V123I
Abz-LAETGK(Dnp)-CONH2
  preference for LAETG over LPETG (kcat/Km): lowers the activity level for LAETG (SEQ ID NO: 5), but maintains an 85-fold preference for LAETG (SEQ ID NO: 5) over LPETG (SEQ ID NO: 4)

B12: wild-type S. aureus sortase A (protein)
chain: QAKPQIPKDKSKVAGYIEIPDADIKEPVYPGPATPEQLNRGVSFAEENESLDDQNISIAGHTFIDRPNYQFTNLKAAKKGSMVYFKVGNETRKYKMTSIRDVKPTDVEVLDEQKGKDKQLTLITCDDYNEKTGVWEKRKIFVATEVK
Abz-LPETGK(Dnp)-CONH2
  Km: 7600 µM
  Km, LxExG: 5180 µM
  kcat/Km: 200 M⁻¹ s⁻¹
  kcat/Km (Hz/M): 236 Hz/M
Gly-Gly-Gly-COOH
  Km, GGG (uM); with LPETG peptide: 291 µM
  Km,GGG (µM); listed substrate LPETG: 211 µM

B13: 2A.6B (protein)
chain: B1 chain with D39N, R40K, V45H, T59A, A63F, R75K, K79V, N101K, K103R
Abz-LAETGK(Dnp)-CONH2
  Km, LxExG: 310 µM
  kcat/Km (Hz/M): 2270 Hz/M
Gly-Gly-Gly-COOH
  Km, GGG (uM); with LAETG peptide: 642 µM

B14: eSrtA(4S-3.5) (protein)
chain: B1 chain with D39N, V45T, A63F, R75K
Abz-LPESGK(Dnp)-CONH2
  Avg KM: 38800 µM
  Avg kcat/KM: 193
  Km, LxExG: 7310 µM
  Specificity, LPESG over LPETG: 1.45 fold
  kcat/Km (Hz/M): 154 Hz/M
Abz-LPETGK(Dnp)-CONH2
  Avg KM: 39300 µM
  Avg kcat/KM: 133

B15: eSrtA(2A-4) (protein)
chain: B1 chain with D39N, V45H, T59A, A63F, R75K, K103R, V109I
Abz-LAETGK(Dnp)-CONH2
  Avg KM: 3720 µM
  Avg kcat/KM: 534
  Km, LxExG: 3250 µM
  Specificity (relative catalytic efficiency, fold), LAETG over LPETG: 55.1 fold
  increase in kcat/Km, LAETG substrate against LPETG substrate: from ˜40-fold (2Ar4) to ˜125-fold (2Ar5) increase in kcat/Km
  kcat/Km (Hz/M): 585 Hz/M
  specificity (relative cat. Efficiency, fold), LAETG over LPETG: 73 fold
Abz-LPETGK(Dnp)-CONH2
  Avg KM: 5180 µM
  Avg kcat/KM: 9.69
  Km, LxExG: 11700 µM
  kcat/Km (Hz/M): 8.01 Hz/M

B16: eSrtA(4S-4) (protein)
chain: B1 chain with D39N, A63S, R75K
Abz-LPESGK(Dnp)-CONH2
  Avg KM: 1560 µM
  Avg kcat/KM: 487
  Km, LxExG: 1410 µM
  Specificity, LPESG over LPETG: 2.22 fold
  kcat/Km (Hz/M): 517 Hz/M
  specificity (relative cat. Efficiency, fold), LPESG over LPETG: 1.82 fold
Abz-LPETGK(Dnp)-CONH2
  Avg KM: 491 µM
  Avg kcat/KM: 219
  Km, LxExG: 339 µM
  kcat/Km (Hz/M): 283 Hz/M

B17: eSrtA(2A-6) (protein)
chain: B1 chain with D39N, V45H, T59A, A63F, R75K, K79V, K103R
Abz-LAETGK(Dnp)-CONH2
  Avg KM: 665 µM
  Avg kcat/KM: 3930
  Km, LxExG: 608 µM
  Specificity (relative catalytic efficiency, fold), LAETG over LPETG: 82.4 fold
  kcat/Km (Hz/M): 4130 Hz/M
  specificity (relative cat. Efficiency, fold), LAETG over LPETG: 86.4 fold
Abz-LPETGK(Dnp)-CONH2
  Avg KM: 3400 µM
  Avg kcat/KM: 47.7
  Km, LxExG: 3290 µM
  kcat/Km (Hz/M): 47.8 Hz/M
Gly-Gly-Gly-COOH
  Avg KM (uM) for GGG; with LAETG (2A) peptide: 1110 µM
  Avg kcat/KM for GGG; with LAETG (2A) peptide: 1610
  Km, GGG (uM); with LAETG peptide: 1040 µM
